# In patent publication US12084522B2, “Peptides, combination of peptides, and cell based medicaments for use in immunotherapy against urinary bladder cancer and other cancers” (Immatics Biotechnologies GmbH, priority 2016, dated 2024):
# Molecular target: HLA-A*02:01 (Homo sapiens, UniProt P04439, D140Y/D185E/D98H/E176V/E277Q/G131W/G231S/I119V/I121R/I166T/I218V/L300P/L318F/N151K/N90K/P208A/P217A/Q86G/Q94H/R138H/R169H/T345S)
# Test: MHC binding assay (UV-ligand exchange, β2m ELISA, peptide exchange yield)
# Settings: binding to HLA-A*02:01 ranged by peptide exchange yield (UV-ligand exchange, β2m ELISA)
# Excerpt: Candidate peptides for T cell based therapies according to the present invention were further tested for their MHC binding capacity (affinity). The individual peptide-MHC complexes were produced by UV-ligand exchange, where a UV-sensitive peptide is cleaved upon UV-irradiation, and exchanged with the peptide of interest as analyzed. Only peptide candidates that can effectively bind and stabilize the peptide-receptive MHC molecules prevent dissociation of the MHC complexes. To determine the yield of the exchange reaction, an ELISA was performed based on the detection of the light chain (β2 m) of stabilized MHC complexes. The assay was performed as generally described in Rodenko et al. (Rodenko et al., 2006).
# 96 well MAXISorp plates (NUNC) were coated over night with 2 μg/ml streptavidin in PBS at room temperature, washed 4× and blocked forth at 37° C. in 2% BSA containing blocking buffer. Refolded HLA-A*02:01/MLA-001 monomers served as standards, covering the range of 15-500 ng/ml. Peptide-MHC monomers of the UV-exchange reaction were diluted 100 fold in blocking buffer. Samples were incubated for 1 h at 37° C., washed four times, incubated with 2 ug/ml HRP conjugated anti-β2 m for 1 h at 37° C., washed again and detected with TMB solution that is stopped with […]. Absorption was measured at 450 nm. Candidate peptides that show a high exchange yield (preferably higher than 50%, most preferred higher than 75%) are generally preferred for a generation and production of antibodies or fragments thereof, and/or T cell receptors or fragments thereof, as they show sufficient avidity to the MHC molecules and prevent dissociation of the MHC complexes.
row,Substance,Peptide exchange
1,26 (GLALLYSGV; listed as Homo sapiens) [compound 26],++++ (>75% = ++++)
2,7 (QMFEGQILDV; listed as Homo sapiens) [compound 7],+++ (>50 = +++)
3,67 (FLTPPLLSV; listed as Homo sapiens) [compound 67],++++ (>75% = ++++)
4,11 (AMAELRVVV; listed as Homo sapiens) [compound 11],++++ (>75% = ++++)
5,92 (ALLDEQQVNVLL; listed as Homo sapiens) [compound 92],+++ (>50 = +++)
6,39 (AMASHLTST; listed as Homo sapiens) [compound 39],+++ (>50 = +++)
7,81 (SLDKGTLYI; listed as Homo sapiens) [compound 81],+++ (>50 = +++)
8,2 (GLLKAYSIRTA; listed as Homo sapiens) [compound 2],+++ (>50 = +++)
9,77 (KVFGGFQVV; listed as Homo sapiens) [compound 77],++++ (>75% = ++++)
10,58 (GLDSSVNVQGSVL; listed as Homo sapiens) [compound 58],+++ (>50 = +++)
11,55 (KLLETKWTL; listed as Homo sapiens) [compound 55],++++ (>75% = ++++)
12,68 (TMIVSLAAV; listed as Homo sapiens) [compound 68],+++ (>50 = +++)
13,49 (SLIGGTNFV; listed as Homo sapiens) [compound 49],+++ (>50 = +++)
14,18 (SIAAYNPVV; listed as Homo sapiens) [compound 18],++++ (>75% = ++++)
15,82 (NLHNSYYSV; listed as Homo sapiens) [compound 82],+++ (>50 = +++)
16,44 (GLAQDPKSLQL; listed as Homo sapiens) [compound 44],+++ (>50 = +++)
17,36 (ALWDEFNQL; listed as Homo sapiens) [compound 36],+++ (>50 = +++)
18,28 (GLIDSLMAYV; listed as Homo sapiens) [compound 28],++++ (>75% = ++++)
19,54 (ALNDEINFL; listed as Homo sapiens) [compound 54],+++ (>50 = +++)
20,65 (IITDLLRSV; listed as Homo sapiens) [compound 65],++++ (>75% = ++++)
21,84 (ALDPASISV; listed as Homo sapiens) [compound 84],+++ (>50 = +++)

row,Substance,Peptide exchange
1,85 (HLLDSKVPSV; listed as Homo sapiens) [compound 85],+++ (>50 = +++)
2,64 (GLLSQGSPL; listed as Homo sapiens) [compound 64],+++ (>50 = +++)
3,71 (LLSEDFVSV; listed as Homo sapiens) [compound 71],++ (>20% = ++)
4,21 (TLIEDDALNGA; listed as Homo sapiens) [compound 21],+++ (>50 = +++)
5,70 (KLAEISLGV; listed as Homo sapiens) [compound 70],++ (>20% = ++)
6,12 (GVALTVTGV; listed as Homo sapiens) [compound 12],++++ (>75% = ++++)
7,33 (VLFGEITRL; listed as Homo sapiens) [compound 33],+++ (>50 = +++)
8,91 (NLDAATYQV; listed as Homo sapiens) [compound 91],+++ (>50 = +++)
9,56 (ILLRDLPTL; listed as Homo sapiens) [compound 56],+++ (>50 = +++)
10,52 (SLATLEGIQL; listed as Homo sapiens) [compound 52],+++ (>50 = +++)
11,83 (VILDKYYFL; listed as Homo sapiens) [compound 83],++++ (>75% = ++++)
12,66 (SLWEENQAL; listed as Homo sapiens) [compound 66],+++ (>50 = +++)
13,19 (SLATTLTKI; listed as Homo sapiens) [compound 19],+++ (>50 = +++)
14,40 (VIADRVVTV; listed as Homo sapiens) [compound 40],+++ (>50 = +++)
15,8 (ALSFSSSAGPGLLKA; listed as Homo sapiens) [compound 8],+++ (>50 = +++)
16,47 (VLMDDTDPL; listed as Homo sapiens) [compound 47],+++ (>50 = +++)
17,43 (FLIESKLLSL; listed as Homo sapiens) [compound 43],++++ (>75% = ++++)
18,32 (YQAPDIDVQL; listed as Homo sapiens) [compound 32],+++ (>50 = +++)
19,90 (GMTELYFQL; listed as Homo sapiens) [compound 90],+++ (>50 = +++)
20,76 (AVVSSVNTV; listed as Homo sapiens) [compound 76],+++ (>50 = +++)

# Next, values leading:
row,Peptide exchange,Substance
1,+++ (>50 = +++),93 (LLDLIQTKV; listed as Homo sapiens) [compound 93]
2,+++ (>50 = +++),115 (SLLDFERSL; listed as Homo sapiens) [compound 115]
3,+++ (>50 = +++),117 (YMLDIFHEVL; listed as Homo sapiens) [compound 117]
4,+++ (>50 = +++),98 (YLIGLDPENLAL; listed as Homo sapiens) [compound 98]
5,++++ (>75% = ++++),140 (ALLDGRVQL; listed as Homo sapiens) [compound 140]
6,+++ (>50 = +++),139 (LLYPTEITV; listed as Homo sapiens) [compound 139]
7,++++ (>75% = ++++),103 (GLYSGEVLV; listed as Homo sapiens) [compound 103]
8,++++ (>75% = ++++),131 (ILTSIQSLL; listed as Homo sapiens) [compound 131]
9,+++ (>50 = +++),100 (SLQSFIHGV; listed as Homo sapiens) [compound 100]
10,+++ (>50 = +++),143 (TLVTGLASV; listed as Homo sapiens) [compound 143]
11,+++ (>50 = +++),110 (VLFNIDGQGNHV; listed as Homo sapiens) [compound 110]
12,+++ (>50 = +++),120 (IIIPEIQKV; listed as Homo sapiens) [compound 120]
13,+++ (>50 = +++),112 (YLDPSLNSL; listed as Homo sapiens) [compound 112]
14,+++ (>50 = +++),119 (SLDEKQNLV; listed as Homo sapiens) [compound 119]
15,++++ (>75% = ++++),123 (NLAGVYSEV; listed as Homo sapiens) [compound 123]
16,++++ (>75% = ++++),133 (GLDPLGYEIQL; listed as Homo sapiens) [compound 133]

row,Peptide exchange,Substance
1,+++ (>50 = +++),96 (KLTNGIWVL; listed as Homo sapiens) [compound 96]
2,++++ (>75% = ++++),113 (FVFEPPPGV; listed as Homo sapiens) [compound 113]
3,+++ (>50 = +++),129 (YLEPKLTQV; listed as Homo sapiens) [compound 129]
4,+++ (>50 = +++),108 (YLDPNQRDL; listed as Homo sapiens) [compound 108]
5,+++ (>50 = +++),147 (QMLELITRL; listed as Homo sapiens) [compound 147]
6,+++ (>50 = +++),134 (IVAPGTFEV; listed as Homo sapiens) [compound 134]
7,++++ (>75% = ++++),122 (ILEPSLYTV; listed as Homo sapiens) [compound 122]
8,+++ (>50 = +++),101 (ILDEMRAQL; listed as Homo sapiens) [compound 101]
9,++++ (>75% = ++++),141 (SMFGAGLTV; listed as Homo sapiens) [compound 141]
10,+++ (>50 = +++),99 (ALIGDDVGL; listed as Homo sapiens) [compound 99]
11,+++ (>50 = +++),116 (QLAWFDTDL; listed as Homo sapiens) [compound 116]
12,++++ (>75% = ++++),132 (YILEGEPGKV; listed as Homo sapiens) [compound 132]
13,+++ (>50 = +++),118 (RLLDFPTLLV; listed as Homo sapiens) [compound 118]
14,+++ (>50 = +++),97 (TVGPGLLGV; listed as Homo sapiens) [compound 97]
15,++++ (>75% = ++++),137 (ALFPHLLQPVL; listed as Homo sapiens) [compound 137]
16,+++ (>50 = +++),127 (KLNATNIEL; listed as Homo sapiens) [compound 127]
